Data as given in paper PMC7153820 (Oncoimmunology, 2020).

Tests used:
[1] = target: biotinylated recombinant human TIM-3-Fc chimera (R&D Systems 2365-TM) (human, UniProt Q8TDQ0, biotin (EZ-Link Sulfo-NHS-LC-Biotinylation kit)); assay: ELISA
rhTIM-3-IgG1-Fc = rhTIM-3-IgG1-Fc (human, UniProt Q8TDQ0); assay: ELISA
[2] = target: rhTIM-3-Fc AF647 (R&D Systems 2365-TM) (Homo sapiens (Human)., UniProt Q8TDQ0, AF647); assay: flow cytometry on cells
[3] = target: human TIM-3 on primary blood cells (Homo sapiens (Human)., UniProt Q8TDQ0); assay: flow cytometry on cells

IC50 [1]: 7.46 ± 0.052 nM
IC50 (rhTIM-3-IgG1-Fc): 0.353 ± 0.383 nM
IC50 [2]: 4.44 ± 3.12 nM
EC50 [3]: 0.74 ± 0.57 nM
B1: M6903, fully human anti-TIM-3 monoclonal IgG2 antibody (antibody, V domains shown)
VH: not shown
VL: QSALTQPRSVSGSPGQSVTISCTGTSSDVGGYNYVSWYQQHPGKAPKLMIYDVSKRPSGVPDRFSGSKSGNTASLTISGLQAEDEADYYCSSYADSVVFGGGTKVTVL
